Patent US20220112288A1 (published 2022)

Assays:
human CD4 on human PBMCs = target: T1, human CD4 on human PBMCs (human, UniProt P01730 26-458); experiment: FACS, clonal hybridoma supernatant on human PBMCs
T1 construct: whole, on cells; the CD4-positive gate was set with the control antibodies OKT4 and RPA-T4; also called hCD4

[1] = target: T2, Recombinant human CD4 (R&D Systems, Cat. 10327-CD) (human, UniProt P01730 26-390, limits assumed); experiment: BLI (Octet Red384), non-clonal supernatant on AMC sensor, 100 nM human CD4, 1:1 local fit;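 also: hybridoma antibodies captured from supernatant, single CD4 concentration as analyte, association and dissociation phases fitted together, giving single-point kinetic estimates per supernatant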
T2 construct: Bought soluble recombinant protein used as analyte at 100 nM; also called huCD4

[2] = target: T2, Recombinant human CD4 (R&D Systems, …); experiment: BLI (Octet Red384), non-clonal supernatant on AMC sensor, 100 nM human CD4
[3] = target: T3, Recombinant human CD4 (R&D Systems, Cat. 10327-CD) (human, UniProt P01730 26-390, limits assumed); experiment: BLI Octet, non-clonal supernatant on AMC sensor, 100 nM human CD4, 1:1 local fit;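 also: Single-concentration kinetics per supernatant, with the 1:1 model fitted across both the association and dissociation phases of the sensorgram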
T3 construct: Bought reagent; also called huCD4

[4] = target: T3, Recombinant human CD4 (R&D Systems, …); experiment: BLI Octet, non-clonal supernatant on AMC sensor, 100 nM human CD4;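 also: hybridoma supernatants diluted 1:3, antibodies captured on AMC biosensors, association and dissociation with CD4 followed, curves smoothed and fit locally with 1:1 binding model for single-point kinetics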

Row | Binder | % CD4 Stain (human CD4 on human PBMCs) [%] | gMFI of CD4+ (human CD4 on human PBMCs) [gMFI] | also measured
1 | 75110_02I18A (antibody, V domains shown, Non-clonal AlivaMab Mouse Kappa hybridoma supernatant, captured by anti-mouse IgG Fc (human V regions, mouse Fc)) VH: EVQVVESGGGLVQPGGSLRLSCAASGFTFSSYDMHWVRQATGKGLEWVSTIGTAGDTYYPGSVKGRFTISRENAKNSLYLQMNSLRAGDTAVYYCARGGYYYYGMDVWGQGTTVTVSS VL: EIVLTQSPGTLSLSPGERATLSCRASQSVSSSYLAWYQQKPGQSPRLLIHGASSRATGIPDRVSGSGSGTDFTLTISRLEPEDFAVYYCQQYGSSPFTFGPGTKVDIK | – | – | Kd [1]: 9 nM; koff [1]: 0.0033 s⁻¹; kon [1]: 370000 M⁻¹ s⁻¹; Response [2]: 0.16
2 | 75110_14H13A (antibody, V domains shown, Tested as clonal hybridoma supernatant from AlivaMab Mouse Kappa mice: human variable regions, human kappa, mouse Fc) VH: EVQLVESGGGLVQPGGSLRLSCAASGFTFSNYDMHWVRQATGKGLEWVSTIGTAGDTYYPGSVKGRFTISRKNAKNSLYLQMISLRAGDTAVYYCARGGDYYYGMDVWGQGTTVTVSS VL: not shown | 35.3 | 160000 | –
3 | 75110_10O16A (antibody, V domains shown, Tested as clonal hybridoma supernatant from AlivaMab Mouse Kappa mice: human variable regions, human kappa, mouse Fc (detected with anti-mouse Fc gamma); also called 75110_10016A) VH: EVQLVESGGGLVQPGGSLRLSCAASGFTFSNSDMHWVRQATGKGLEWVSTIGTAGDTYYPGSVKGRFTISRENAKNSLYLQMNSLRAGDTAVYYCARGGLYYYGMDVWGQGTTVTVSS VL: ENVLTQSPGTLSLSPGERATLSCRASQSVSSSYLAWYQQKPGQAPRLLIYGASSRATGIPDRFSGSGSGTDFTLTISRLEPEDFAVYYCHQFGSSPFTFGPGTKVDIK | 37.2 | 133000 | –
4 | 75110_08K12A (antibody, V domains shown, Non-clonal AlivaMab Mouse Kappa hybridoma supernatant, captured by anti-mouse IgG Fc (human V regions, mouse Fc)) VH: EVQLVESGGGLVQPGGSLRLSCAASGFTFSSYDMHWVRQATGKGLEWVSTIGTAGDTYYPGSVKGRFTISRENAENSLYLQMNSLRAGDTALYYCARGDYYYYGMDVWGQGTTVTVSS VL: EIVLTQSPGTLSLSPGERATLSCRASQSVSSTYLAWYQQKPGQAPRLLIYGASNRATGIPDRFSGSGSGTDFTLTISRLEPEDFAVYYCQQFGTSPFTFGPGTKVDIK | – | – | Kd [1]: 4.5 nM; koff [1]: 0.0031 s⁻¹; kon [1]: 700000 M⁻¹ s⁻¹; Response [2]: 0.11
5 | 75110_13C07A (antibody, V domains shown, Tested as clonal hybridoma supernatant from AlivaMab Mouse Kappa mice: human variable regions, human kappa, mouse Fc) VH: EVQLVESGGVLVQPGGSLRLSCAASGFTFSNYDMHWVRQATGKGLEWVSTIGTAGDTYYPGSVKGRFTLSRENAKNSLYLQMHSLRAGDTAVYYCARGAYGYYGMDVWGQGTTVTVSS VL: not shown | 37.5 | 56000 | –
6 | 75110_05F19A (antibody, V domains shown, Non-clonal AlivaMab Mouse Kappa hybridoma supernatant, captured by anti-mouse IgG Fc (human V regions, mouse Fc)) VH: EVQLVESGGGLVQPGGSLRLSCAASGFTFSNYDVHWVRQPTGKGLEWVSTIGTAGDTYYPGSVKGRFTISRENAKNSLYLQMNSLRAGDTAVYYCARGGYDYYGLDVWGQGTTVTVSS VL: not shown | – | – | Kd [1]: 0.032 nM; koff [1]: 4.4e-06 s⁻¹; kon [1]: 140000 M⁻¹ s⁻¹; Response [2]: 0.18
7 | 75110_01L08A (antibody, V domains shown, Non-clonal AlivaMab Mouse Kappa hybridoma supernatant, captured by anti-mouse IgG Fc (human V regions, mouse Fc)) VH: QVQLQESGPGLVKPSETLSLTCTVSGGSISHYYWSWIRQPPGKGLEWIGYIHYSGTTNYNPSLKSRVTISVDTSKNQLSLKLRSVTAADTAVYYCARDQGFSSGGMDVWGQGTTVTVSS VL: not shown | – | – | Kd [1]: 4.1 nM; koff [1]: 0.00037 s⁻¹; kon [1]: 91000 M⁻¹ s⁻¹; Response [2]: 0.09
8 | 75110_14I16A (antibody, V domains shown, Tested as clonal hybridoma supernatant from AlivaMab Mouse Kappa mice: human variable regions, human kappa, mouse Fc; also called 75110_14116A) VH: QVQLQESGPGLVKPSETLSLTCTVSNGSISSYYWSWIRQSAGKGLEWIGRIYTSGSTNYNPSLKSRVTMLVDTSKNQFSLKLSSVTAADTAVYYCARDREDYYYYGMDVWGQGTTVTVSS VL: DIQMTQSPSSLSASVGDRVTITCQASHDISNYLNWYQQKPGKAPKLLLYYASNLETGVPSRFSGSGSGTDFTFTITSLQPEDIGTYSCQQYDNLPLTFGGGTKVEIK | 33.2 | 298000 | –
9 | 75110_14P08A (antibody, V domains shown, Tested as clonal hybridoma supernatant from AlivaMab Mouse Kappa mice: human variable regions, human kappa, mouse Fc) VH: QVQLQESGPGLVKSSETLSLTCTDSGDSIRSYYWNWIRQPAGKGLEWIGRIYASGSTNYNPSLKSRVIMSADTSKNRFSLKLSSVTAADTAVYYCARDGGVGDSLDYWGQGTLVTVSS VL: DIVMTQTPLSLPVTPGEPASISCRSSQSLLDSDDGNTYLDWYLQKPGQSPQLLIYTLSYRASGVPDRFSGSGSGTDFTLKISRVEAEDVGVYYCMQRIEFPFTFGPGTKVDIK | 28.3 | 58500 | –
10 | 75110_13P22A (antibody, V domains shown, Tested as non-clonal AlivaMab Mouse Kappa hybridoma supernatant, captured by anti-mouse IgG Fc sensor) VH: QVQLQQWGAGLLKPSETLSLTCAAYGGSFSGYYWSWIRQSPGKGLEWIGEINQSGNTNYNPSLKSRVTISADTSKNQFSLKLSSVTAADTAVYYCARVLNWFDYWGQGILVTVSS VL: DIQMTQSPSSVSASVGDRVTITCRASQGISDWLAWYQQKSGKAPDLLIFAASSLQSGVPSRFSGSGSGTDFTLTISSLQPEDFATYYCQQANSFPYTFGQGTKLEIK | – | – | Kd [3]: 0.68 nM; koff [3]: 0.00013 s⁻¹; kon [3]: 190000 M⁻¹ s⁻¹; Response [4]: 0.24
11 | 75110_12K21A (antibody, V domains shown, Tested as clonal hybridoma supernatant from AlivaMab Mouse Kappa mice: human variable regions, human kappa, mouse Fc) VH: QVQLQQWGAGLLKPSETLSLTCAVSGGSFSGYYWSWIRQPPGKGLEWIGEINHSGSTNCNPSLKSRVTISVDTSNNQFSLKLSSVTAADTAVYYCARVLNYFDYWGQGTLVTVSS VL: DIQMTQSPSSVSASVGDRVTITCRASPDIANWLAWYQQKPGKAPELLIYAASSLQSGVPSRFSGSGSGTDFTLTISSLQPEDFATYFCQQANSFPLTFGGGTKVESK | 37.2 | 147000 | –
12 | 75110_11D03A (antibody, V domains shown, Tested as clonal hybridoma supernatant from AlivaMab Mouse Kappa mice: human variable regions, human kappa, mouse Fc) VH: EVQLVESGGGLVQPGGSLRLSCAASGFTFSSYWMSWVRQAPGKGLEWVANINQDGNEKYYVDSVKGRFTISRDNAKNSLFLQMNSLRAEDTAVYYCAREGGQWLALDYWGQGALVTVSS VL: DIQMTQSPSSVSASVGDRVTITCRASQGISSWLAWYQQKPGKAPKFLISGASSLQSGVPSRFSGSGSGTDFTLTISSLQPEDFATYYCQQANSFPWTFGQGTKVEIK | 30.1 | 217000 | –
13 | 75110_13C13A (antibody, V domains shown, Tested as clonal hybridoma supernatant from AlivaMab Mouse Kappa mice: human variable regions, human kappa, mouse Fc) VH: QVQLQQWGAGLLKPSETLSLTCAVSGGSFSGYYWSWIRQPPGKGLEWIGEINHSGSTNCNPSLKSRVTISVDTSKNQFSLKLSSVTAADTAMYYCARVLNFFDYWGQGTLVTVSS VL: DIQMTQTPSSVSASVGDRVTITCRASPGISNWLAWYQQKPGKAPELLIYAASSLQSGVPSRFSGSGSGTDFTLTISSLQPEDFATYFCQQANSFPLTFGGGTKVESK | 28.6 | 123000 | –
14 | 75110_12C19A (antibody, V domains shown, Tested as clonal hybridoma supernatant from AlivaMab Mouse Kappa mice: human variable regions, human kappa, mouse Fc) VH: EVQLVESGGGLVQPGGSLRLSCAASGFTFSSYWMSWVRQAPGKGLEWVANIKEDGSDKYYVDSVKGRFTISRDNAKNSLYLQMNSLRAEDTAVHYCVREGGQWLALDYWGQGTLVTVSS VL: DIQMTQSPSSVSGSVGDRVTITCRASQGISSWLAWYQQKPGKAPKLLIYGASSLQSGVPSRFSGSGSGTDFTLTISSLQPEDFVTYYCQQANSFPWTFGQGTKVEIK | 24.4 | 56500 | –

More lines, main results first:

Row | % CD4 Stain (human CD4 on human PBMCs) [%] | gMFI of CD4+ (human CD4 on human PBMCs) [gMFI] | Binder | also measured
15 | 31.1 | 241000 | 75110_14G10A (antibody, V domains shown, Tested as clonal hybridoma supernatant from AlivaMab Mouse Kappa mice: human variable regions, human kappa, mouse Fc) VH: EVQLVESGGGLVKPGGSLRLSCAASGFTFSSYSMNWVRQAPGKGLEWVSFISSSSSYIYYADSVKGRFTISRDNAKNSLYLQMNSLRAEDTAVYYCARERGDDYGDYEGAFDIWGQGTMVTVSS VL: not shown | –
16 | 32.5 | 265000 | 75110_14N19A (antibody, V domains shown, Tested as clonal hybridoma supernatant from AlivaMab Mouse Kappa mice: human variable regions, human kappa, mouse Fc) VH: QVQLQESGPGLVKPSETLSLTCTVSGGSISRYYWSWIRQPAGKGLEWIGRICTSENPNYNPALKSRVTMSVDTSKNQFSLKLSSVTAADTAVYYCARELERLNYYGMDVWGQGTTVTVSS VL: DIQMTQFPSSLSASVGDRVTITCQASQDISNYLNWYQQKPGKAPKLLIYDASNLESGVPSRFSGRGSGTDFTFTISSLQPEDFATFYCQQYDTLPITFGQGTRLEIK | –
17 | 37.5 | 185000 | 75110_13P22A (antibody, V domains shown, Tested as clonal hybridoma supernatant from AlivaMab Mouse Kappa mice: human variable regions, human kappa, mouse Fc) VH: QVQLQQWGAGLLKPSETLSLTCAAYGGSFSGYYWSWIRQSPGKGLEWIGEINQSGNTNYNPSLKSRVTISADTSKNQFSLKLSSVTAADTAVYYCARVLNWFDYWGQGILVTVSS VL: DIQMTQSPSSVSASVGDRVTITCRASQGISDWLAWYQQKSGKAPDLLIFAASSLQSGVPSRFSGSGSGTDFTLTISSLQPEDFATYYCQQANSFPYTFGQGTKLEIK | –
18 | 27.2 | 31800 | 75110_13P21A (antibody, V domains shown, Tested as clonal hybridoma supernatant from AlivaMab Mouse Kappa mice: human variable regions, human kappa, mouse Fc) VH: QVQLQQWGAGLLKPSETLSLTCAVSGGSFSGYYWSWIRQPPGKGLEWIGEINHSGSTNCNPSLKSRVTISVDTSNNQFSLKLSSVTAADTAVYYCARVLNYFDYWGQGTLVTVSS VL: DIQMTQSPSSVSASVGDRVTITCRASPDIANWLAWYQQKPGKAPELLIYAASSLQSGVPSRFSGSGSGTDFTLTISSLQPEDFATYFCQQANSFPLTFGGGTKVESK | –
19 | 37.3 | 197000 | 75110_12H17A (antibody, V domains shown, Tested as clonal hybridoma supernatant from AlivaMab Mouse Kappa mice: human variable regions, human kappa, mouse Fc) VH: EVQLVESGGGLVQPGGSLRLSCAASGFTFSDYWMSWVRQAPGKGLEWVANIKEDGNEKYYVDSVKGRFTISRDNAKNSLFLQMNSLRAEDTAVYYCAREGGQWLALDYWGQGALVTVSS VL: DIQMTQSPSSVSASVGDRVTITCRASQGISSWLAWYQQKPGKAPKFLISGASSLQSGVPSRFTGSGSGTDFTLTISSLQPEDFATYYCQQANSFPWTFGQGTKVEIK | –
20 | 36.8 | 284000 | 75110_12H19A (antibody, V domains shown, Tested as clonal hybridoma supernatant from AlivaMab Mouse Kappa mice: human variable regions, human kappa, mouse Fc) VH: EVQLVESGGGLVQPGGSLRLSCAASGFTFSSYWMSWVRQAPGQGLEWVANINEDGNEKYHVDSVKGRLTISRDNAKNSLYLQMNSLRGVDTAVYFCAREGGQWLALDYWGQGALVTVSS VL: DIQMTQSPSSVSASVGDRVSITCRASQGISSWLAWYQQKPGKAPKLLIYGASGLQSGVPSRFSGSGSGTDFTLTISSLQPEDFATYYCQQANSFPWTFGQGTKVEIK | –
